Source: the supplement of paper PMC9732359
± gives the uncertainty stated by the source.

Assay: protein stability index of a GFP-peptide fusion (yeast GPS) (PSI 1-4); higher = more stable; sorted into four equal gates, so the index is relative within each strain
In short: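 Tiled 17-residue peptides from yeast proteins were fused downstream of GFP on a plasmid that also expresses Cherry, and the pooled library was carried in yeast. Mid-log cultures grown in leucine-free medium were sorted into four equal gates by GFP/Cherry fluorescence ratio. Plasmids from each gate were PCR-amplified and Illumina-sequenced, and reads were assigned to strains by barcodes. Each peptide's protein stability index is the sum, over gates, of the gate's read frequency multiplied by its gate number.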

Row | Sequence | protein stability index (doa10∆) | protein stability index (pdr5∆) | protein stability index (san1∆) | protein stability index (ubr1∆)
1 | ANATAAESDVAKQLAAL [RPL16A] | 3 ± 0.043 | 2.84 ± 0.061 | 3.19 ± 0.046 | 3.23 ± 0.05
2 | IAARRTGLLRGSQKTQD [RPL2A] | 2.83 ± 0.095 | 2.73 ± 0.064 | 2.66 ± 0.075 | 2.68 ± 0.079
3 | IMKFQSLSDNDLAVCAT [ECM29] | 2.03 ± 0.076 | 2.46 ± 0.067 | 2.69 ± 0.062 | 2.77 ± 0.064
4 | FIKEIHKSIELISNLLF [YCS4] | 1.89 ± 0.047 | 2.16 ± 0.051 | 2.48 ± 0.052 | 2.46 ± 0.034
5 | TRPISSQVLDLAKKIAP [SMC2] | 2.72 ± 0.15 | 2.44 ± 0.097 | 2.59 ± 0.28 | 1.95 ± 0.14
6 | STPGGGSVFNMNGNTNA [YOR098C/NUP1] | 2.87 ± 0.098 | 3.6 ± 0.2 |  | 3.15 ± 0.15
7 | RLFIGDQNNKKMVGLRG [SNF2] | 2.65 ± 0.1 | 2.87 ± 0.085 | 2.36 ± 0.1 | 2.69 ± 0.082
8 | FLSPYISTHLKTICNLL [IRR1] | 1.57 ± 0.05 | 1.76 ± 0.065 | 1.69 ± 0.1 | 1.29 ± 0.038
9 | VLSALEGKSVDELITEG [RPP2A] |  | 3.23 ± 0.15 | 3.41 ± 0.073 | 3.45 ± 0.28
10 | CWPKDSRMRLIRQDVNL [PRP8] | 2.52 ± 0.081 | 2.68 ± 0.09 | 2.72 ± 0.067 | 2.76 ± 0.12
11 | SDKTIVPTSIQTKRWPT [SIN4] | 2.32 ± 0.059 | 2.6 ± 0.055 | 2.35 ± 0.054 | 2.77 ± 0.048
12 | IIKENVKVARLAGKYIP [FAS1] | 1.73 ± 0.23 | 1.6 ± 0.27 |  | 1.82 ± 0.1
13 | TVTSLDVVYALKRQGRT [HHF1] | 3.55 ± 0.18 | 3.26 ± 0.13 | 3.18 ± 0.086 | 2.31 ± 0.076
14 | SMSGRISAKDMGQGLCN [BRR2] | 3 ± 0.11 | 3.03 ± 0.084 | 3.02 ± 0.076 | 3.19 ± 0.078
15 | ANRDDVKGRENELLLPS [RPC82] | 3.37 ± 0.14 |  | 3.6 ± 0.09 | 3.34 ± 0.084
16 | ETHETNISNAKLANFFS [YAR002W/NUP60] | 3.03 ± 0.12 | 3.15 ± 0.11 | 3.15 ± 0.073 | 3.2 ± 0.13
17 | KIMQEATQSGGVRPFGV [PRE8] |  | 2.45 ± 0.29 |  | 2.95 ± 0.1
18 | TYQTERFTKFSDTLKEF [YDL116W/NUP84] | 2.38 ± 0.047 | 2.31 ± 0.056 | 1.73 ± 0.12 | 1.97 ± 0.046
19 | NSRNAIRKLVKNGTIVK [RPL19A] | 2.84 ± 0.07 | 2.9 ± 0.063 | 2.89 ± 0.057 | 2.79 ± 0.066
20 | DCLDKLLNDECTESTRE [SNF2] | 3.5 ± 0.14 | 3.4 ± 0.13 | 3.48 ± 0.091 | 3.41 ± 0.17
21 | VTKGGTVENPLRNWEEL [PRP28] | 2.55 ± 0.073 | 2.71 ± 0.1 | 3.33 ± 0.055 | 2.89 ± 0.057
22 | TSSIFQESFNSVQNLDQ [NUT1] | 3.16 ± 0.086 | 2.64 ± 0.057 | 2.98 ± 0.048 | 3.14 ± 0.054
23 | EDFPIDTWANGETIKSN [SEM1] | 3.55 ± 0.14 | 3.61 ± 0.19 | 3.13 ± 0.2 | 3.15 ± 0.15
24 | WNSLMYALQSVKLPRAF [RRP43] | 1.31 ± 0.066 | 1.34 ± 0.083 | 1.2 ± 0.12 | 1.29 ± 0.051
25 | QHQEEPLLSLDVTPISM [RPN4] | 2.77 ± 0.2 | 2.97 ± 0.16 | 3.07 ± 0.086 | 2.65 ± 0.23
26 | GTGLQSYLEERERQVNE [RPC53] | 3.17 ± 0.16 | 3.24 ± 0.12 | 3.14 ± 0.11 | 3.25 ± 0.13

Row | Sequence | protein stability index (doa10∆) | protein stability index (pdr5∆) | protein stability index (san1∆) | protein stability index (ubr1∆)
27 | ALDTVTNVLNFIKLQKI [FAS1] | 2.76 ± 0.069 | 2.04 ± 0.067 | 2.14 ± 0.13 | 2.15 ± 0.055
28 | ELSFYILYSFKLSGKLL [YML103C/NUP188] | 1.47 ± 0.043 | 1.49 ± 0.04 | 1.49 ± 0.081 | 1.74 ± 0.037
29 | AHFLSLSFTPTTVIGIR [RPN2] | 1.57 ± 0.043 | 1.56 ± 0.041 | 1.28 ± 0.083 | 1.27 ± 0.031
30 | FISNLPNVSDKYYLEES [NUT1] | 2.16 ± 0.098 | 1.49 ± 0.094 |  | 1.27 ± 0.076
31 | AENMLEELRGQQTEHET [SMC4] | 3.02 ± 0.13 | 2.97 ± 0.2 | 3.32 ± 0.069 | 3.4 ± 0.1
32 | MTIDLEPIEESSQNNSE [IRR1] | 2.94 ± 0.068 | 3.14 ± 0.056 | 2.67 ± 0.11 | 3.09 ± 0.059
33 | KNTSSMDFLNSMENTPK [GAL11] | 1.83 ± 0.059 | 1.67 ± 0.06 | 2.33 ± 0.12 | 3.02 ± 0.047
34 | VPVANQFINLAGYKKLG [QCR7] | 1.97 ± 0.14 | 2.5 ± 0.13 | 1.94 ± 0.17 | 2.48 ± 0.11
35 | AARKAEKAKSAGTQSSK [RPL24A] | 3.13 ± 0.099 | 3.11 ± 0.068 | 3.22 ± 0.082 | 3.29 ± 0.043
36 | LLIHRKGLTYLHLDYNF [PRP8] | 1.77 ± 0.043 | 1.28 ± 0.034 | 1.32 ± 0.079 | 1.56 ± 0.048
37 | PSSMATLLKNLRKKLNF [YJR042W/NUP85] | 2.91 ± 0.078 | 2.73 ± 0.075 | 2.91 ± 0.079 | 2.89 ± 0.066
38 | SADYEILYEIRALYTPF [YDL116W/NUP84] | 1.86 ± 0.073 | 2.21 ± 0.068 | 2.5 ± 0.07 | 2.06 ± 0.066
39 | NHFSLSYKDSGLWGFST [COR1] | 2.96 ± 0.077 | 3.23 ± 0.073 | 3.15 ± 0.046 | 3.02 ± 0.054
40 | SNTTTHVPEKKSTDLTP [MTR3] |  |  | 2.15 ± 0.18 | 1.31 ± 0.29
41 | LELPLCPYCYKKRREYF [SIR2] | 2.46 ± 0.053 | 2.06 ± 0.057 | 1.95 ± 0.07 | 1.98 ± 0.077
42 | AVQNESVSSPIELNFDA [QCR2] | 2.95 ± 0.059 | 2.95 ± 0.061 | 2.86 ± 0.065 | 3.06 ± 0.042
43 | LRNKLIESNKLAGVLYE [RRP6] | 2.72 ± 0.16 | 3.04 ± 0.21 | 2.79 ± 0.28 | 2.73 ± 0.18
44 | TEAEETSIHSTISILAA [RRP43] | 1.28 ± 0.043 | 1.63 ± 0.045 | 1.77 ± 0.068 | 1.37 ± 0.035
45 | IEIMGILMGFTLKDNIV [RRI1] | 2.46 ± 0.097 | 2.15 ± 0.076 | 2.81 ± 0.12 | 2.55 ± 0.083
46 | LKIQFILSTTLDPTDDE [SIN4] | 2.04 ± 0.1 | 2.33 ± 0.081 | 2.12 ± 0.067 | 2.81 ± 0.099
47 | YHGLYTNYEMSYWQKSY [LIN1] | 1.75 ± 0.046 | 2.08 ± 0.038 | 2.11 ± 0.055 | 2.17 ± 0.041
48 | SLHPLFEQFEKFYEEKL [RPN9] | 2.67 ± 0.24 | 2.9 ± 0.16 |  | 
49 | NPEEVEQVAEEAAAAEE [RPS0B] | 3.07 ± 0.092 | 3.03 ± 0.11 | 2.95 ± 0.12 | 3.26 ± 0.071
50 | YSIALSNVAAIFKGIGG [GAL11] | 1.52 ± 0.08 | 1.55 ± 0.076 | 1.38 ± 0.18 | 1.48 ± 0.048
51 | TINGKVNGRTKSNTIPV [GAL11] | 3 ± 0.091 | 2.77 ± 0.12 | 3.02 ± 0.099 | 3.19 ± 0.097
52 | VRELFEMARTKKACIIF [RPT1] | 1.12 ± 0.093 | 1.29 ± 0.11 | 1.08 ± 0.21 | 1.66 ± 0.14
